To fix the notation:
B1: Cyclin-dependent kinase inhibitor 2A (Homo sapiens), P42771 (parent)
chain: MEPAAGSSMEPSADWLATAAARGRVEEVRALLEAGALPNAPNSYGRRPIQVMMMGSARVAELLLLHGAEPNCADPATLTRPVHDAAREGFLDTLVVLHRAGARLDVRDAWGRLPVDLAEELGHRDVARYLRAAAGGTRGSNHARIDAAEGPSDIPD

The variants in experiment [1] derive from B1. The conditions noted are these: with cdk4_human CDK4, P11802.
Variants of B1 are the subject of experiment [2]. The conditions noted are these: with cdk4_human CDK4, P11802. This is another data set of the same source.
In the experiment “cdk6_human CDK6, Q00534” the parent is B1. The following applies: with cdk6_human CDK6, Q00534.
cdk6_human CDK6, Q00534, sequence (Q00534 whole entry): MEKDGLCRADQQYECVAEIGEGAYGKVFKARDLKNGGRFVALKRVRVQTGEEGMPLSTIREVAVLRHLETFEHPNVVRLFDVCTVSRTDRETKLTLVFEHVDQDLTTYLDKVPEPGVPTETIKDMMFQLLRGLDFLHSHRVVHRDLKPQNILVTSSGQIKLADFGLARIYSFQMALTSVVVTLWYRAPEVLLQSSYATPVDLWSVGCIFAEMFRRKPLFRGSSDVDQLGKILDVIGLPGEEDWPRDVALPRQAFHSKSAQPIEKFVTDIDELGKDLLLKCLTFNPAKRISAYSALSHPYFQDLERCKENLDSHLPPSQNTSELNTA

cdk4_human CDK4, P11802, sequence (P11802 whole entry): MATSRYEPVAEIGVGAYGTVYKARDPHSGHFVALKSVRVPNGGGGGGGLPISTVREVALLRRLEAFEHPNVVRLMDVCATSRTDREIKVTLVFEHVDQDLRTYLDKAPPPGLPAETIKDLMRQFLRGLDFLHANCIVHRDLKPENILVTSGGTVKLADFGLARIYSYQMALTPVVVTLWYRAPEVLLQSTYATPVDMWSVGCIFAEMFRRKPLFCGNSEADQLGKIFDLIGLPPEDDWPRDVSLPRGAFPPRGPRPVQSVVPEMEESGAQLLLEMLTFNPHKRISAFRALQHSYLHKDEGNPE

Take A20P: the “effect of a mutation on the interaction” value with cdk4_human CDK4, P11802 [1] is on record as “disrupting interaction”; with cdk4_human CDK4, P11802 [2], “disrupting interaction strength”; in the experiment with cdk6_human CDK6, Q00534, “disrupting interaction”.

For the variant R24P, the “effect of a mutation on the interaction” value in the experiment with cdk4_human CDK4, P11802 [1] is listed as “disrupting interaction”.
